± gives the uncertainty stated by the source.
Assay: amyloid nucleation score (Sup35N fusion, yeast selection) (log enrichment); library NNK1; higher = more nucleation; inactive = no reads after selection
Procedure, shortened: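 Plasmid inserts were Illumina-sequenced at input and output from psi-negative yeast expressing Sup35N fused to peptides of 20 random codons. The yeast were induced with 100 μM copper sulfate for 24 hours and grown 7 days at 30°C on medium lacking adenine and uracil, and sequences with under 100 input reads were excluded. Nucleation score is the DiMSum log enrichment of output over input reads, centred on the mode score of non-aggregating sequences.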

Row | Substance | amyloid nucleation score
1 | MNFCYLCTTWWSYYFQ | -0.38 ± 0.32
2 | VWYWLSNNLDVW | 0.809 ± 0.98
3 | STRHPTKNR | 0.823 ± 0.21
4 | IASFVEERLSEIPYLATLGL | -0.385 ± 0.46
5 | LIWSHVLDGYSCEKPSNRMC | -0.662 ± 0.98
6 | TQVIAPVVCMAIDYCANITV | 4.96 ± 0.099
7 | YSWILKKWVFVYSLFTSGHM | 0.278 ± 0.55
8 | ARFVDYPCALLWARTSR | -0.375 ± 0.56
9 | HLDCGCRTFGLTWYWTKDCV | -0.143 ± 0.49
10 | SKLFLGGLPCTQYWPRMCMV | -0.356 ± 0.64
11 | IADPNRFFTLLNLPMQCREA | inactive
12 | LVWILHVSSVNNHVDWGMLE | -1.64 ± 2.4
13 | KFILRYMAWTRVDAVVSKPY | -0.496 ± 0.38
14 | CTLVDHYWGCEGRSCARCSS | 0.233 ± 0.55
15 | LYLYM | 0.959 ± 0.34
16 | GRGKPMTLASKFIAGRFVF | 0.521 ± 0.97
17 | FLLESL | inactive
18 | GLVIELNPFKSLLSSPWVFF | 0.335 ± 0.71
19 | TEITC | 0.837 ± 0.27
20 | EMYKTRAFLSRKYMRHLLFN | -0.316 ± 0.39
21 | ATHKNWIKRDTVHSLDGC | 0.041 ± 0.26
22 | DSMKN | 1.39 ± 0.13
23 | VWTMIYSTCGSDFYFCSVEL | 0.715 ± 0.47
24 | LCSHAIFCSSCGRFVLMEAC | inactive
25 | RCLSQNYCLSLASRLEHMCI | 0.572 ± 1.1
26 | KGTGRLIRLASAWAGMGMHL | -0.332 ± 1.1

Row | Substance | amyloid nucleation score
27 | LFSYMYLEVDMSESMIRYL | 1.02 ± 0.31
28 | RVTVTLFYMFNNRGEGKSQA | 3.44 ± 0.12
29 | GIAVHGMLDRMVSRRGLRAW | 0.387 ± 0.97
30 | GTMTRWWFVVCTEKTAGTNR | 0.374 ± 0.44
31 | LIHRA | -0.041 ± 0.32
32 | MGTSITI | -0.202 ± 0.84
33 | EGRLTVE | -0.011 ± 0.32
34 | WNRVWIMYGT | 1.57 ± 0.22
35 | GFFFVFHYSGTHGLICCYTL | -0.22 ± 0.41
36 | TEDPYSGPILKEPVDLCWLE | 0.494 ± 0.74
37 | DCRMFDFLA | -0.444 ± 0.38
38 | GGKVGREQTIW | -0.123 ± 0.89
39 | NFSFLGFLSRYGCLFQVSS | 0.582 ± 0.6
40 | ITGFKFS | 0.698 ± 0.3
41 | LHIAMTVYC | 2.42 ± 0.13
42 | HQNRDIIMMMSFCAGNTGYK | 4.98 ± 0.12
43 | IMLNLFHYGSSLQQFKTHH | 7.325 ± 0.054
44 | YRFFCCVGHITSFVFLVGNV | 5.25 ± 0.054
45 | SVSVQERTSGVYSHVSSENY | -0.162 ± 0.45
46 | IAYNDSYMVKYCVREVLMDE | 4.29 ± 0.13
47 | LVENLWTLRRRLVGALF | 0.31 ± 0.4
48 | LTLKTSNHFIYLSLLYIRVV | -0.03 ± 0.3
49 | WFAAHPYFNWDGGIRY | -1.41 ± 2.7
50 | YYTCGMYPIYRCCLRTMYSA | -0.494 ± 0.22
51 | KSYLLGDGTFNSCTW | 0.107 ± 0.69
52 | WIILFWHYFSKYFQPLIGRS | inactive

Row | Substance | amyloid nucleation score
53 | GWLIR | inactive
54 | QNVACSMH | 0.093 ± 0.57
55 | FGTFCMGRPYRYYGCNGGFR | 0.674 ± 0.35
56 | YMSVWFVTVSMDCVGRNSRT | 4.19 ± 0.058
57 | SSCYDRVLYAPDRRR | 1.23 ± 0.45
58 | GLLNTYS | 0.626 ± 1.2
59 | LRSSEYWSLMEVDLVMDSLP | 0.629 ± 0.97
60 | LVFFHISR | 4.94 ± 0.1
61 | MGCLN | 0.082 ± 0.62
62 | SCWNSCNKMSF | 2.87 ± 0.24
63 | LQSTFFFYGGCKRVWSMMYH | 4.45 ± 0.12
64 | MYGITKSA | 0.195 ± 0.64
65 | MYCGS | -0.279 ± 0.27
66 | EDKYFA | 0.323 ± 0.69
67 | AMLLLTCGL | 0.481 ± 0.74
68 | GCVGGWSVEFITLGYWSQRG | 1.17 ± 0.88
69 | FLRFIRSVNFYVKEYAESLL | -0.691 ± 0.52
70 | LELLMVKILSSLYDIMIFCC | inactive
71 | GILDTLKVEVLGSVVHS | 1.01 ± 0.59
72 | EEGDAAGVVILNMQRSYG | -0.427 ± 0.41
73 | PHVTGGSPCSKHSLRW | -0.716 ± 0.65
74 | IYVFSALRCTGTEVWYRLVT | -1.2 ± 1.4
75 | VFPALLNISRLISKTQCSQV | -0.978 ± 0.99
76 | VLRRLRSWRKVELENNRGKM | inactive
77 | RAVVW | 0.695 ± 0.8
78 | RIIGHLKFIMIRNNVSLCDM | -0.146 ± 0.5

Row | Substance | amyloid nucleation score
79 | RLLASGFLSTRFR | 0.143 ± 0.86
80 | TNVMLPNGVGFLAPAVHCES | 1.04 ± 0.51
81 | LTASLTAGVTRWVLRRFVYH | 0.588 ± 0.77
82 | VAATGNYIIIDNVRLVHAFG | -0.987 ± 0.67
83 | WRIMNHNVLLMLVRLGSILL | 1.18 ± 0.28
84 | TKWAVDY | 0.347 ± 0.28
85 | CSILF | 0.011 ± 0.75
86 | YSAYNRQEDLGLKIVFVLLT | 2.57 ± 0.1
87 | TYGDGEAE | inactive
88 | YSLGVPSPRKILNVFGGTW | -0.101 ± 0.47
89 | ADDACVSET | inactive
90 | DFVLIFLRICSCPSHTNFYL | 3.45 ± 0.12
91 | FYRFDQRNLEDVGGGMYGSS | 0.3 ± 0.83
92 | HSVNYTLSQVNGSGLVFRAF | 2.41 ± 0.12
93 | AIYVNGCVCCISYLVPILMS | 3.61 ± 0.075
94 | GSSENRFF | inactive
95 | LKRVCNS | 0.002 ± 0.63
96 | ISLVICGFYGLAEMVDNSQN | 7.51 ± 0.077
97 | GLIMYPRGYMCKSIT | 0.813 ± 0.43
98 | RKASWRWMSSMSNVGWTCPN | 4.67 ± 0.12
99 | RTSPN | -0.141 ± 0.37
100 | AIPGGVTGTGWSSM | -0.221 ± 0.51
101 | NMHNQVAFISCSFILFDVIN | 6.95 ± 0.07
102 | LPDCINNVQNGYSKLSEGLS | 0.792 ± 1
103 | ILTDTSMGTSAVHRARQTLK | 0.066 ± 0.48
104 | GWRNGKCFDGASPEWVLGHA | -0.39 ± 1.2

Row | Substance | amyloid nucleation score
105 | TFYCYLSLGSHEKKADFSNN | 2.21 ± 0.15
106 | SGTTRWCRGGV | 0.127 ± 0.74
107 | VVSDRRFYLLKFKSGVLSLV | -0.043 ± 0.31
108 | FFFHSKDVYYGDFVHLSFAG | -0.352 ± 1.2
109 | VVATKLSV | -0.95 ± 1.4
110 | WDMAFSVALGLRYMRCGLKL | -0.286 ± 0.35
111 | TWMLVEVVNCCLYTHVFYR | 4.27 ± 0.061
112 | YSVDQYSNTMRLTLHMLVFV | 0.455 ± 0.79
113 | NFSRIKYYGSYEVFIFAGNY | 0.398 ± 0.79
114 | VERLAT | -0.259 ± 0.73
115 | PIHPRTLMG | 0.117 ± 0.59
116 | DKELSFAKGACSKFSDSFRA | -1.45 ± 1.1
117 | DNMSVLYDTTLVFRWIWVEP | inactive
118 | ILCALMRFLVETLHLINFWK | -0.278 ± 0.61
119 | NFARDLKRHVRMG | 0.461 ± 0.35
120 | VFSKHRFSIYCSRYAEPTTR | 0.002 ± 0.31
121 | NSLCEFSMKMFTYNSMGGFI | 1.86 ± 0.26
122 | RYVPVATKSSTGMSYWDIMV | 0.194 ± 0.38
123 | SYKSWQ | 0.978 ± 0.43
124 | SGHNSLGFISGIAINIFYRE | 7.537 ± 0.069
125 | SSLLFEPATASFILQD | -0.894 ± 0.68
126 | VCCGPSSEEP | 0.384 ± 0.85
127 | DPEVIGLIVCNM | -1.16 ± 1
128 | FHCGMGIF | -0.197 ± 0.32
129 | YKWLLAGGNTKCSKVRNAYW | -0.356 ± 0.39
130 | SCPTMYSYVFWVRFQSGTAS | 1.72 ± 0.13
